Key:
[1] = molecular target: Fc receptors on human cells (γIFN-induced monocytes, γIFN-induced THP-1 cells, ADCC effector cells); test: cell-based or functional assay
[2] = molecular target: baboon CD4 on lymphocytes (baboon); test: flow cytometry on lymphocytes of different species
[3] = molecular target: human CD4 on cells (human) (UniProt P01730); test: cell-based or functional assay

| ADCC, total specific lysis of SupT1 cells [1] [%] | ED50 of cell-cell adhesion (γIFN activated fresh monocytes and CD4+ SupT1 T cells) [1] [µg/mL] | fold lower reactivity than human [2] [fold] | IL-2 Production (IC50), three way MLR [3] [µg/mL] | Proliferation (IC50), three way MLR [3] [µg/mL] | Substance | ADCC, concentration at maximal cytotoxicity [1] [µg/mL] |
| --- | --- | --- | --- | --- | --- | --- |
| 50 | 0.02 | 10 | – | – | CE9.1 monkey/human chimeric anti-CD4 monoclonal antibody (ATCC No. 69030 construct) (from UniProt P01857 1-330) | 6 |
| – | – | – | 0.02 | 0.02 | CE9γ4λK (antibody) | – |
